Assay results: article PMC12102759 (2025)

B1: AMOTL2 peptide 64-79 (Angiomotin-like protein 2), 16-mer library wild type / TNKS ANK (TNKS 12 ANK repeats, residues 174-649) (parent complex)
chain 1: QVLQQATRQEPQGQEH
chain 2: TGVPAVSGALRELLEACRNGDVSRVKRLVDAANVNAKDMAGRKSSPLHFAAGFGRKDVVEHLLQMGANVHARDDGGLIPLHNACSFGHAEVVSLLLCQGADPNARDNWNYTPLHEAAIKGKIDVCIVLLQHGADPNIRNTDGKSALDLADPSAKAVLTGEYKKDELLEAARSGNEEKLMALLTPLNVNCHASDGRKSTPLHLAAGYNRVRIVQLLLQHGADVHAKDKGGLVPLHNACSYGHYEVTELLLKHGACVNAMDLWQFTPLHEAASKNRVEVCSLLLSHGADPTLVNCHGKSAVDMAPTPELRERLTYEFKGHSLLQAAREADLAKVKKTLALEIINFKQPQSHETALHCAVASLHPKRKQVTELLLRKGANVNEKNKDFMTPLHVAAERAHNDVMEVLHKHGAKMNALDTLGQTALHRAALAGHLQTCRLLLSYGSDPSIISLQGFTAAQMGNEAVQQILSESTPIRTSD
B2: AMOTL2 peptide 66-81 (Angiomotin-like protein 2), 16-mer library wild type / TNKS ANK (TNKS 12 ANK repeats, residues 174-649) (parent complex)
chain 1: LQQATRQEPQGQEHQG
chain 2: B1 chain 2

Variants of: B1
Assay: proteomic peptide phage display deep mutational scan (ProP-PD DMS): M13 P8 16-mer library selected against immobilised GST-tagged bait for four days (rounds), NGS of the eluted pools per day and pseudo-replica; bait immobilised on MaxiSorp plates (10 µg), library pre-cleared on GST, 2 h binding at 4 °C, five washes; one round per day, days 1-4; value from days 2 and 3

Variant | screen value
chain 1 E15V | 0.00435 average fractional NGS count over selection days 2 and 3 (reads of this peptide / all reads for the bait, averaged over …
chain 1 E15T | 0.00184 average fractional NGS count over selection days 2 and 3 (reads of this peptide / all reads for the bait, averaged over …
chain 1 E15S | 0.00106 average fractional NGS count over selection days 2 and 3 (reads of this peptide / all reads for the bait, averaged over …
chain 1 E15M | 0.000421 average fractional NGS count over selection days 2 and 3 (reads of this peptide / all reads for the bait, averaged over …
chain 1 E15N | 0.00037 average fractional NGS count over selection days 2 and 3 (reads of this peptide / all reads for the bait, averaged over …
chain 1 E15Y | 0.0003 average fractional NGS count over selection days 2 and 3 (reads of this peptide / all reads for the bait, averaged over …
chain 1 E15Q | 0.000335 average fractional NGS count over selection days 2 and 3 (reads of this peptide / all reads for the bait, averaged over …
chain 1 E15A | 0.000599 average fractional NGS count over selection days 2 and 3 (reads of this peptide / all reads for the bait, averaged over …
chain 1 E15F | 0.000795 average fractional NGS count over selection days 2 and 3 (reads of this peptide / all reads for the bait, averaged over …
chain 1 L3M | 0.000608 average fractional NGS count over selection days 2 and 3 (reads of this peptide / all reads for the bait, averaged over …
chain 1 L3Q | 0.00366 average fractional NGS count over selection days 2 and 3 (reads of this peptide / all reads for the bait, averaged over …
chain 1 L3T | 0.00246 average fractional NGS count over selection days 2 and 3 (reads of this peptide / all reads for the bait, averaged over …
chain 1 L3K | 0.00157 average fractional NGS count over selection days 2 and 3 (reads of this peptide / all reads for the bait, averaged over …
chain 1 L3A | 0.000396 average fractional NGS count over selection days 2 and 3 (reads of this peptide / all reads for the bait, averaged over …
chain 1 L3P | 0.000422 average fractional NGS count over selection days 2 and 3 (reads of this peptide / all reads for the bait, averaged over …
chain 1 L3I | 0.00105 average fractional NGS count over selection days 2 and 3 (reads of this peptide / all reads for the bait, averaged over …
chain 1 L3F | 0.00165 average fractional NGS count over selection days 2 and 3 (reads of this peptide / all reads for the bait, averaged over …
chain 1 L3D | 0.000181 average fractional NGS count over selection days 2 and 3 (reads of this peptide / all reads for the bait, averaged over …
chain 1 A6G | 0.000155 average fractional NGS count over selection days 2 and 3 (reads of this peptide / all reads for the bait, averaged over …
chain 1 A6H | 0.00168 average fractional NGS count over selection days 2 and 3 (reads of this peptide / all reads for the bait, averaged over …
chain 1 A6W | 0.000677 average fractional NGS count over selection days 2 and 3 (reads of this peptide / all reads for the bait, averaged over …
chain 1 A6I | 0.000647 average fractional NGS count over selection days 2 and 3 (reads of this peptide / all reads for the bait, averaged over …
chain 1 A6V | 0.0104 average fractional NGS count over selection days 2 and 3 (reads of this peptide / all reads for the bait, averaged over …
chain 1 A6R | 0.000251 average fractional NGS count over selection days 2 and 3 (reads of this peptide / all reads for the bait, averaged over …

Variants of: B2
Assay: as above

Variant | screen value
chain 1 L1T | 0.000919 average fractional NGS count over selection days 2 and 3 (reads of this peptide / all reads for the bait, averaged over …
chain 1 L1Y | 0.000392 average fractional NGS count over selection days 2 and 3 (reads of this peptide / all reads for the bait, averaged over …
chain 1 L1Q | 0.00176 average fractional NGS count over selection days 2 and 3 (reads of this peptide / all reads for the bait, averaged over …
chain 1 Q12I | 9.74e-05 average fractional NGS count over selection days 2 and 3 (reads of this peptide / all reads for the bait, averaged over …
chain 1 Q12M | 0.000359 average fractional NGS count over selection days 2 and 3 (reads of this peptide / all reads for the bait, averaged over …
chain 1 Q10I | 0.000713 average fractional NGS count over selection days 2 and 3 (reads of this peptide / all reads for the bait, averaged over …
chain 1 Q10L | 0.00347 average fractional NGS count over selection days 2 and 3 (reads of this peptide / all reads for the bait, averaged over …
chain 1 Q10E | 0.000182 average fractional NGS count over selection days 2 and 3 (reads of this peptide / all reads for the bait, averaged over …
chain 1 Q3P | 0.000624 average fractional NGS count over selection days 2 and 3 (reads of this peptide / all reads for the bait, averaged over …
chain 1 Q3L | 0.000335 average fractional NGS count over selection days 2 and 3 (reads of this peptide / all reads for the bait, averaged over …
chain 1 Q3A | 0.0023 average fractional NGS count over selection days 2 and 3 (reads of this peptide / all reads for the bait, averaged over …
chain 1 Q3T | 0.000102 average fractional NGS count over selection days 2 and 3 (reads of this peptide / all reads for the bait, averaged over …
chain 1 E13L | 0.000144 average fractional NGS count over selection days 2 and 3 (reads of this peptide / all reads for the bait, averaged over …
chain 1 E13A | 0.000224 average fractional NGS count over selection days 2 and 3 (reads of this peptide / all reads for the bait, averaged over …
chain 1 H14V | 0.00237 average fractional NGS count over selection days 2 and 3 (reads of this peptide / all reads for the bait, averaged over …
chain 1 H14I | 0.000314 average fractional NGS count over selection days 2 and 3 (reads of this peptide / all reads for the bait, averaged over …
chain 1 T5D | 0.000166 average fractional NGS count over selection days 2 and 3 (reads of this peptide / all reads for the bait, averaged over …
chain 1 T5F | 0.00053 average fractional NGS count over selection days 2 and 3 (reads of this peptide / all reads for the bait, averaged over …
chain 1 T5G | 0.000124 average fractional NGS count over selection days 2 and 3 (reads of this peptide / all reads for the bait, averaged over …
chain 1 T5V | 0.00996 average fractional NGS count over selection days 2 and 3 (reads of this peptide / all reads for the bait, averaged over …
chain 1 T5H | 0.00114 average fractional NGS count over selection days 2 and 3 (reads of this peptide / all reads for the bait, averaged over …
chain 1 T5W | 0.000715 average fractional NGS count over selection days 2 and 3 (reads of this peptide / all reads for the bait, averaged over …
chain 1 T5Y | 0.00023 average fractional NGS count over selection days 2 and 3 (reads of this peptide / all reads for the bait, averaged over …
chain 1 T5L | 0.00104 average fractional NGS count over selection days 2 and 3 (reads of this peptide / all reads for the bait, averaged over …
chain 1 E8W | 0.000174 average fractional NGS count over selection days 2 and 3 (reads of this peptide / all reads for the bait, averaged over …
chain 1 E8V | 0.000436 average fractional NGS count over selection days 2 and 3 (reads of this peptide / all reads for the bait, averaged over …

Variant | screen value
chain 1 E8L | 0.000201 average fractional NGS count over selection days 2 and 3 (reads of this peptide / all reads for the bait, averaged over …
chain 1 E8T | 0.00026 average fractional NGS count over selection days 2 and 3 (reads of this peptide / all reads for the bait, averaged over …
chain 1 E8M | 0.000135 average fractional NGS count over selection days 2 and 3 (reads of this peptide / all reads for the bait, averaged over …
chain 1 E8P | 0.00018 average fractional NGS count over selection days 2 and 3 (reads of this peptide / all reads for the bait, averaged over …
chain 1 Q15L | 0.0017 average fractional NGS count over selection days 2 and 3 (reads of this peptide / all reads for the bait, averaged over …
chain 1 Q15V | 0.000269 average fractional NGS count over selection days 2 and 3 (reads of this peptide / all reads for the bait, averaged over …
chain 1 Q15W | 0.000288 average fractional NGS count over selection days 2 and 3 (reads of this peptide / all reads for the bait, averaged over …
chain 1 Q15A | 0.00403 average fractional NGS count over selection days 2 and 3 (reads of this peptide / all reads for the bait, averaged over …
chain 1 Q15N | 0.00022 average fractional NGS count over selection days 2 and 3 (reads of this peptide / all reads for the bait, averaged over …
chain 1 Q7T | 0.000305 average fractional NGS count over selection days 2 and 3 (reads of this peptide / all reads for the bait, averaged over …
chain 1 Q7L | 0.00305 average fractional NGS count over selection days 2 and 3 (reads of this peptide / all reads for the bait, averaged over …
chain 1 Q7A | 0.000124 average fractional NGS count over selection days 2 and 3 (reads of this peptide / all reads for the bait, averaged over …
chain 1 Q7P | 0.000611 average fractional NGS count over selection days 2 and 3 (reads of this peptide / all reads for the bait, averaged over …
chain 1 Q7F | 0.000322 average fractional NGS count over selection days 2 and 3 (reads of this peptide / all reads for the bait, averaged over …
chain 1 Q7N | 0.000208 average fractional NGS count over selection days 2 and 3 (reads of this peptide / all reads for the bait, averaged over …
chain 1 Q2V | 0.000551 average fractional NGS count over selection days 2 and 3 (reads of this peptide / all reads for the bait, averaged over …
chain 1 Q2L | 0.00083 average fractional NGS count over selection days 2 and 3 (reads of this peptide / all reads for the bait, averaged over …
chain 1 Q2P | 0.000458 average fractional NGS count over selection days 2 and 3 (reads of this peptide / all reads for the bait, averaged over …
chain 1 Q2I | 0.000122 average fractional NGS count over selection days 2 and 3 (reads of this peptide / all reads for the bait, averaged over …
chain 1 A4T | 0.000212 average fractional NGS count over selection days 2 and 3 (reads of this peptide / all reads for the bait, averaged over …
chain 1 A4F | 0.000957 average fractional NGS count over selection days 2 and 3 (reads of this peptide / all reads for the bait, averaged over …
chain 1 A4D | 0.000175 average fractional NGS count over selection days 2 and 3 (reads of this peptide / all reads for the bait, averaged over …
chain 1 A4W | 0.000419 average fractional NGS count over selection days 2 and 3 (reads of this peptide / all reads for the bait, averaged over …
chain 1 A4V | 0.000321 average fractional NGS count over selection days 2 and 3 (reads of this peptide / all reads for the bait, averaged over …
chain 1 A4S | 0.000138 average fractional NGS count over selection days 2 and 3 (reads of this peptide / all reads for the bait, averaged over …
